Test results published in publication PMC12083921.

Assays:
[1] = target: AKAP79^FAAF, GFP-tagged, full length (human) (human) (UniProt P24588); assay: co-IP
[2] = target: AKAP79, mRFP-tagged, full length (human) (human) (UniProt P24588); assay: FRAP
[3] = target: AKAP79^FAAF, mRFP-tagged (human) (human) (UniProt P24588); assay: FRAP
[4] = target: AKAP79^AF, GFP-tagged, full length (human) (human) (UniProt P24588); assay: co-IP
[5] = target: AKAP79^FA, GFP-tagged, full length (human) (human) (UniProt P24588); assay: co-IP
[6] = target: AKAP150, mRFP-tagged (rat) (rat) (UniProt P24587); assay: FRAP
Chain of UniProt P24587 (P24587 whole entry): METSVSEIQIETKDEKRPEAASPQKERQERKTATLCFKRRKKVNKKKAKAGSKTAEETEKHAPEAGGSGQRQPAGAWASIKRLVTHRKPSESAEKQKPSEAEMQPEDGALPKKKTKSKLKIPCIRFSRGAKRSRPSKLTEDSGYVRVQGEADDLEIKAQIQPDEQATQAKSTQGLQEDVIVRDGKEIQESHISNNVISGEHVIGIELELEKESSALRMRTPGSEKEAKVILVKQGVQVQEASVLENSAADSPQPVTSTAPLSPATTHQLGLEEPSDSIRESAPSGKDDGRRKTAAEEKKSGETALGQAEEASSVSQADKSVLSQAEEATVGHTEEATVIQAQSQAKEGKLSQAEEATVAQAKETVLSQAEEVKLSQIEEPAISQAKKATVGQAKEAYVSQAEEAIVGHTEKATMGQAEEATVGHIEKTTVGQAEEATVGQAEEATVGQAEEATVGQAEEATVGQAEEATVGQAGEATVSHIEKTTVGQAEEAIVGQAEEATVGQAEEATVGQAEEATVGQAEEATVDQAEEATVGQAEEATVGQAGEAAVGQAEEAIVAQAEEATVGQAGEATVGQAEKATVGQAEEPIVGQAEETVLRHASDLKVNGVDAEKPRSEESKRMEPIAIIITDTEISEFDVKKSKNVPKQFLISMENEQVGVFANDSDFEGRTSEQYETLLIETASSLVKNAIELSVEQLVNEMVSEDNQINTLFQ

fold RI band intensity over controls [1] [fold]	FRAP recovery half-time [2] [s]	FRAP recovery rate constant [2] [s⁻¹]	FRAP recovery half-time [3] [s]	FRAP recovery rate constant [3] [s⁻¹]	percent decrease of RII binding against WT AKAP79 [4] [%]	percent decrease of RII binding against WT AKAP79 [5] [%]	percent decrease of RII binding against WT AKAP79 [1] [%]	FRAP recovery half-time [6] [s]	FRAP recovery rate constant [6] [s⁻¹]	Substance
3.55										PKA type I regulatory subunit alpha (RIα), endogenous (from UniProt P10644 1-381) (natural protein)
	8.74	0.079	20.5	0.034						PKA type I regulatory subunit alpha, iRFP-tagged (RI-iRFP) (from UniProt P10644 1-381) (natural protein)
					22	45	45			PKA type II regulatory subunit alpha (RIIα), endogenous (from UniProt P13861 1-404) (natural protein)
	14.4	0.049	11.4	0.062				12.3	0.057	PKA type II regulatory subunit alpha, iRFP-tagged (RII-iRFP) (from UniProt P13861 1-404) (natural protein)
